From patent US20250092135A1 (NANJING LEADS BIOLABS, published 2025) come the findings set out here.

For orientation: Kd means the concentration at which binding is half-saturated. In general, koff refers to the rate constant with which the complex falls apart. The kon is the rate constant with which the complex forms.

Common to all, as to experiment: BLI (ForteBio Octet RED96), antibody on AHC sensor, analyte 100-3.13 nM, 1:1 model
A general note: Biolayer interferometry detects binding as a change in optical thickness at a sensor tip.

Experiment [1] deals with T1, Human CD3D & CD3E heterodimer protein (human, UniProt P07766 23-126; P04234 22-105).
T1 construct: Bought recombinant heterodimer; also called human CD3 protein (Sino Biological, Cat #CT038-H2508H)
T1 sequence (P07766 23-126 limits assumed, chain 1 of 2): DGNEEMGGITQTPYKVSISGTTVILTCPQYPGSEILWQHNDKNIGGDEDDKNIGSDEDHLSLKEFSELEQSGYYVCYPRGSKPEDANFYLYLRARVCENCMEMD
T1 sequence (P04234 22-105 limits assumed, chain 2 of 2): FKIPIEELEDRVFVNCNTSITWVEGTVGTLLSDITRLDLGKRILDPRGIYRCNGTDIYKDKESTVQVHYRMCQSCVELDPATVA
The source says:
(§1) In this experiment, the binding affinity of the bispecific antibody for the human CD3 protein (Cat #CT038-H2508H, Sinobiological), cynomolgus monkey CD3 protein (Cat #CDD-C52W4, Acrobiosystems), human MUC16 protein (full-length human MUC16, the membrane-proximal end of the extracellular region of MUC16 (Table 26)), and cynomolgus monkey MUC16 protein (full-length cynomolgus monkey MUC16, the membrane-proximal end of the extracellular region of MUC16 (Table 26)) was detected using ForteBio Octet RED96 according to the manufacturer's instructions.
(§2) Briefly, an AHC sensor (ForteBio, Cat #18-5060) was placed in a running buffer (1×PBS, Hyclone, Cat #SH30256.01, containing 0.02% Tween 20, pH 7.0) and pre-equilibrated at room temperature for 10 min. […] The experimental data were fitted and calculated using a Fortebio Data Analysis software 1:1 binding model.

Another experiment deals with T2, Human MUC16-His (human).
T2 construct: The entry includes the C-terminal 6xHis tag; also called membrane-proximal end of the extracellular region of the human MUC16 protein; Human MUC16 protein
T2 chain: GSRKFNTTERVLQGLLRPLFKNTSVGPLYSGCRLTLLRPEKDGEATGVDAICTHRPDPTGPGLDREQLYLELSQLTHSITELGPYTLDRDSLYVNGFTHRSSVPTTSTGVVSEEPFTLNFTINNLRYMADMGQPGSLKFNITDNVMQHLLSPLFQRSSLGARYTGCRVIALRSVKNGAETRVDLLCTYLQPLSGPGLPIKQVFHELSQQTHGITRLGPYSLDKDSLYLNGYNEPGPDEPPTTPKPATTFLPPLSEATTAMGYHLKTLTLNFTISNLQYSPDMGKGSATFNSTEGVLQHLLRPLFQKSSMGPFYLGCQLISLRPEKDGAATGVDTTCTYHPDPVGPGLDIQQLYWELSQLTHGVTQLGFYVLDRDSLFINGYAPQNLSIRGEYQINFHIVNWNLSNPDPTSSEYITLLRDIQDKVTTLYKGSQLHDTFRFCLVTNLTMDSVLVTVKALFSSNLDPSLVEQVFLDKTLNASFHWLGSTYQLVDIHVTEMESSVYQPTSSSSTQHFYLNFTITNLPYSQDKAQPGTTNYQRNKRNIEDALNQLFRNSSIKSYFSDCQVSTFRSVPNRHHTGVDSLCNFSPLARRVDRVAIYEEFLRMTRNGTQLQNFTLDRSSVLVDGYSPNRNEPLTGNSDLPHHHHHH
Text: as §1, §2

Experiment [2] concerns the target T3, Cynomolgus monkey MUC16-His (cynomolgus monkey).
T3 construct: The entry includes the C-terminal 6xHis tag; also called Cynomolgus monkey MUC16 protein
T3 chain: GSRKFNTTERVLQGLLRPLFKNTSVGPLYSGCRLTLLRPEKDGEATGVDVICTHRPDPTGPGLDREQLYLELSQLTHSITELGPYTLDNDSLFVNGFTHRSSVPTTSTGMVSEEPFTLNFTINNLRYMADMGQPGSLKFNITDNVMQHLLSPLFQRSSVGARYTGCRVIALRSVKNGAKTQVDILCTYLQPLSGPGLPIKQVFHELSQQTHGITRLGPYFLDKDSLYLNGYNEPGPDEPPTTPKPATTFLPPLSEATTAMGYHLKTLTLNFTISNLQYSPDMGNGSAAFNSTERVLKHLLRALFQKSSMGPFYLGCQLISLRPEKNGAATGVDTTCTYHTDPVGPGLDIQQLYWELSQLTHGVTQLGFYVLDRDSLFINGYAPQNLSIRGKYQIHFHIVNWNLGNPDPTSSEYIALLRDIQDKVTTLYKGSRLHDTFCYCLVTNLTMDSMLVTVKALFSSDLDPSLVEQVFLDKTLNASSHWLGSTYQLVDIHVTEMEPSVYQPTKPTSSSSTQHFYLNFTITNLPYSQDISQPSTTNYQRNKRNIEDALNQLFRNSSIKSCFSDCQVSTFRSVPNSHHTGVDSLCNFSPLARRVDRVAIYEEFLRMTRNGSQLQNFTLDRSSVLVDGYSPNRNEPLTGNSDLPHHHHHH
Text: as §1, §2

B1: anti-CD3/MUC16 bispecific antibody MCH7-23L2-MCH7 (bispecific antibody, human IgG1, kappa, L234A L235A)
heavy 1: QVQLVQSGAEVKKPGASVKVSCKASGYTFTDYNIHWVRQAPGQGLEWMGYIYPYNGVSDYNQNFKSRVTMTTDTSTSTAYMELRSLRSDDTAVYYCARWDFGSGYYFDYWGQGTLVTVSSASTKGPSVFPLAPSSKSTSGGTAALGCLVKDYFPEPVTVSWNSGALTSGVHTFPAVLQSSGLYSLSSVVTVPSSSLGTQTYICNVNHKPSNTKVDKKVEPKSCEVQLVESGGGLVQPGGSLKLSCAASGFTFSTYAMNWVRQAPGKGLEWVGRIRSKYNNYATYYADSVKDRFTISRDDSKNTLYLQMNSLKTEDTAVYYCTRHGNFGNSYVSWFAYWGQGTTVTVSSGGGGSGGGGSGGGGSQAVVTQEPSLTVSPGGTVTLTCRSSTGAVTTSNYANWVQQKPGQAPRGLIGGTNKRAPGVPARFSGSLLGGKAALTLSGAQPEDEAEYFCALWYSNLWVFGGGTKLTVLGEPKSSDKTHTCPPCPAPEAAGGPSVFLFPPKPKDTLMISRTPEVTCVVVAVSHEDPEVKFNWYVDGVEVHNAKTKPREEQYNSTYRVVSVLTVLHQDWLNGKEYKCKVSNKALAAPIEKTISKAKGQPREPQVCTLPPSRDELTKNQVSLSCAVKGFYPSDIAVEWESNGQPENNYKTTPPVLDSDGSFFLVSKLTVDKSRWQQGNVFSCSVMHEALHNHYTQKSLSLSPGK
heavy 2: not shown
light: EIVLTQSPATLSLSPGERATLSCRASSSVIYMSWYQQKPGQAPRLLIYGTSTLASGIPARFSGSGSGTDFTLTISSLEPEDFAVYYCQQWSSNPFTFGQGTKLEIKRTVAAPSVFIFPPSDEQLKSGTASVVCLLNNFYPREAKVQWKVDNALQSGNSQESVTEQDSKDSTYSLSSTLTLSKADYEKHKVYACEVTHQGLSSPVTKSFNRGEC
notes: MCH7-23L2ScFv-Hole (VH-CH1-scFv-Fc) + MCH7-KIH-Knob + two light chains MCL4 LC
In experiment [1], B1 came in with a Kd of 44.3 nM, a koff of 0.00933 s⁻¹ and a kon of 211000 M⁻¹ s⁻¹. In the experiment with Human MUC16-His, this molecule had a Kd of 3.17 nM, a dissociation rate constant (koff) of 0.000524 s⁻¹ and an on-rate (kon) of 166000 M⁻¹ s⁻¹. In experiment [2], binding was characterised by a dissociation constant (Kd) of 2.91 nM, the off-rate (koff) was determined as 0.000546 s⁻¹ and the association rate constant (kon) worked out at 188000 M⁻¹ s⁻¹.
